Experimental data published in patent US20070253950A1 (Pfizer, published 2007).

Molecular target: T1, human RAGE-Fc fusion protein (human, UniProt Q15109 23-344)
T1 construct: amino acids 1-344 of human RAGE appended to the Fc domain of human IgG; also called hRAGE-Fc; huRAGE-Fc
Test: ligand competition ELISA: HMGB1 coated, hRAGE-Fc pre-mixed with antibody, bound hRAGE-Fc detected with anti-huIgG-HRP; blocked ligand HMGB1
Procedure: Wells were washed and blocked as described above and exposed to 100 μl of pre-incubated mixtures of RAGE-Fc or TrkB-Fc (a non-specific Fc control), at 0.1 μg/ml, plus various forms of the indicated antibody preparation (dilutions of immune sera, hybridoma supernatants or purified antibodies) for 1 hour at room temperature.

- IC50 (read off the curve): ~0.1 µg/mL
B1: XT-H2 (antibody, V domains shown)
VH: QVQLQQSGAELAKPGASVKMSCKASGYTFTTYWMHWVKQRPGQGLYWIGYINPSTGYTEYNQKFKDKATLTADKSSSTAYMQLSSLTSEDSAVYYCARWAGYTIDYWGQGTSVTVSS
VL: DVVLTQTPLSLPVNIGDQASISCKSTKSLLNSDGFTYLDWYLQKPGQSPQLLIYLVSDRFSGVPDRFSGSGSGTDFTLTISRVEAEDLGVYYCFQSNSLPLTFGSGTKLEIK
notes: also called 1hRAGEP3/16
